Experimental data: patent publication US20230357838

How the values were obtained:
APOBEC3A = APOBEC3A (UniProt P31941); conditions: ssDNA deaminase control
MGYPDa20 (unidentified) = test system: T1, MGYPDa20 (unidentified); conditions: 5mC 0.049, 5hmC 0.021
T1 sequence: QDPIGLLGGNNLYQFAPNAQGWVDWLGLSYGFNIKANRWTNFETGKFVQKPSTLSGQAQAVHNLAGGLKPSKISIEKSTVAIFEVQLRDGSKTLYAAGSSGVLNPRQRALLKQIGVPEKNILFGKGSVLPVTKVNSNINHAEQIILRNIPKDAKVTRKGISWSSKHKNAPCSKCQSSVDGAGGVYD

MGYPDa06 (unidentified) = test system: T2, MGYPDa06 (unidentified)
T2 sequence: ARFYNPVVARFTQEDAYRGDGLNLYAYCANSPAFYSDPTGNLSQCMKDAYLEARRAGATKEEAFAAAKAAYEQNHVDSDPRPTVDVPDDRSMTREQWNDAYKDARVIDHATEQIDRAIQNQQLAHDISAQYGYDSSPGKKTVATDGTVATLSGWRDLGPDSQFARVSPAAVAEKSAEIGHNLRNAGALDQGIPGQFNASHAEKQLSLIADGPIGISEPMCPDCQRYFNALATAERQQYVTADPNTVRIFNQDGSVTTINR

[1] = test system: T3, FlDa01 (Flavobacterium sp.)
T3 sequence: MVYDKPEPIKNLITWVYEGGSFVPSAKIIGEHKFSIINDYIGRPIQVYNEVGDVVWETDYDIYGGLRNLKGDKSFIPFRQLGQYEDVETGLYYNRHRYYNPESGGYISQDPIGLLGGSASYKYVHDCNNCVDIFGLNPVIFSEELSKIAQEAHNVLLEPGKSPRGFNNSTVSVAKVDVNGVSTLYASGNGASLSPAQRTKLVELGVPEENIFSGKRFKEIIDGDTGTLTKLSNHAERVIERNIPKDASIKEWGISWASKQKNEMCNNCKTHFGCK

[2] = test system: T4, CsDa01 (Chitinophaga silvisoli)
T4 sequence: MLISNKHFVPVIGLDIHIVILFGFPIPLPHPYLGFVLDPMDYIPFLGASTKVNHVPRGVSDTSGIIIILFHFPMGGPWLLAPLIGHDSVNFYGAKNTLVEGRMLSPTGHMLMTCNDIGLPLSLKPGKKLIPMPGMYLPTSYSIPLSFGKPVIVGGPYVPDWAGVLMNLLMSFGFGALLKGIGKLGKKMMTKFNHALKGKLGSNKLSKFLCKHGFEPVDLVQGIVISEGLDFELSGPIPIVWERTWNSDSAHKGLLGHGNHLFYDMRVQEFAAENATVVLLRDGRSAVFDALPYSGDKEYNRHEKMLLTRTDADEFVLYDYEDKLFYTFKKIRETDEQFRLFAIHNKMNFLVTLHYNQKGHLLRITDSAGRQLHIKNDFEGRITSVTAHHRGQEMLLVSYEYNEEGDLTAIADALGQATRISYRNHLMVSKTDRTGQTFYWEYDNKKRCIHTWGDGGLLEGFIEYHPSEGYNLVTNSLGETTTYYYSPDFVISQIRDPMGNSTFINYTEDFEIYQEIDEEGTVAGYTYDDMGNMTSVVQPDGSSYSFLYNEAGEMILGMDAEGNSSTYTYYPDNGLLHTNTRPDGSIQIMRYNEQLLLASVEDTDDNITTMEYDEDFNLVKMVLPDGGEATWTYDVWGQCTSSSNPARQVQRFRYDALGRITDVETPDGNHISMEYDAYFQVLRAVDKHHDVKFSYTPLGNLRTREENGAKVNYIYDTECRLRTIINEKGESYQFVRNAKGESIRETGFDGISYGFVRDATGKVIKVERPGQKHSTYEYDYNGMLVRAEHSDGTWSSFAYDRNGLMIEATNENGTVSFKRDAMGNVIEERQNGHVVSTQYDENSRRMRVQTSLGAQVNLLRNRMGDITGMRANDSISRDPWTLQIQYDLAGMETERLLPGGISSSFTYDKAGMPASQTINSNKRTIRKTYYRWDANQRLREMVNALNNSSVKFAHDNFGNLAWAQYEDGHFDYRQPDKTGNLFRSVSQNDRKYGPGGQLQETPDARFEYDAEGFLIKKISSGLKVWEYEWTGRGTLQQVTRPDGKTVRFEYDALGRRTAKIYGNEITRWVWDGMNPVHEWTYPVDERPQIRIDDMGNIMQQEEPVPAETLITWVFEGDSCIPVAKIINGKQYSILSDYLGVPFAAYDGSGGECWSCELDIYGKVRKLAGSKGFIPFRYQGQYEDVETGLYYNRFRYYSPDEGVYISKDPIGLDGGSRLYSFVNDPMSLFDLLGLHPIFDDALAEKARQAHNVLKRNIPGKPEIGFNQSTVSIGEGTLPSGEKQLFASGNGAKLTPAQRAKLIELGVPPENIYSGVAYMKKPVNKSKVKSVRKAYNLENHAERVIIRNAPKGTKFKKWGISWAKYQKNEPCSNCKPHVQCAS

AcDa01 = conditions: CG 0.790, CH 0.014
[3] = test system: T5, BaDa01 (Bacillus aerophilus)
T5 sequence: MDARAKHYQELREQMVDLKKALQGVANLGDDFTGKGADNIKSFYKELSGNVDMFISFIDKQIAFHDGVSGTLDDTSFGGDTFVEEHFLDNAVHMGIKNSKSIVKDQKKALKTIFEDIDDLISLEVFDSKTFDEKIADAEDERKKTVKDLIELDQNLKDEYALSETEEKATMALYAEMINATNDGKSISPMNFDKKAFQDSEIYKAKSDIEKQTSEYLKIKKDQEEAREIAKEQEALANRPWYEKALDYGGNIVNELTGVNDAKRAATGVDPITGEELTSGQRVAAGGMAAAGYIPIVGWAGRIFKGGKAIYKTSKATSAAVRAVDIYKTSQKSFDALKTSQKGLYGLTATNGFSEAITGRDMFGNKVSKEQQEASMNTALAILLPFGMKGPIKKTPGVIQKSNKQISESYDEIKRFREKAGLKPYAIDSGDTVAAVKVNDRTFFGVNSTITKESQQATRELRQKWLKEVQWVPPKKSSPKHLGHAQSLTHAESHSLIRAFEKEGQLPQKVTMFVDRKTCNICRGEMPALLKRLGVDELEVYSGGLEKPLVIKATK

APOBEC3A, sequence (P31941 other isoform, or with tags, fused parts or gaps): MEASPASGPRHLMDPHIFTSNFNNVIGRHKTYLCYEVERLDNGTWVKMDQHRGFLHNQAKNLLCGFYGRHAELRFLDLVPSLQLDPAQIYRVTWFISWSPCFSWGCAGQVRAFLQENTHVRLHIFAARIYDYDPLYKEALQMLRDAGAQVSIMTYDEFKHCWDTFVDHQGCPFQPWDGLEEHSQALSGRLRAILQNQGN

With “unmodified dsDNA (E. coli C2566 genomic)” the activity (fraction deaminated) (APOBEC3A) was 0.331, the activity (fraction deaminated) (MGYPDa20 (unidentified)) was 0.857 and the activity (fraction deaminated) (MGYPDa06 (unidentified)) was 0.997. It also gave an activity (fraction deaminated) [1] of 0.928, an activity (fraction deaminated) [2] of 0.913 and an activity (fraction deaminated) (AcDa01) of 0.243. It also gave an activity (fraction deaminated) [3] of 0.612.
